Substitutions are numbered along the chain they refer to.
B1: scFv H3 (scFv)
scFv: QVQLQESGPGLVKTSETLSLTCAVSGYSISSGYYWGWIRQPPGKGLEWIGSISHTGNTYYNPPLKSRVTISVDTSKNQFSLKLSSVTAADTAVYYCARFMGFGRPEYWGKGTLVTVSSGGGGSGGGGSGGGGSALSSELTQDPPVSVALGQTVTLTCQGDSLRTYYASWYQQKSGQAPILLLYGKHKRPSGIPDRFSGSTSGDTASLTITGAQAEDEADYYCNSRDSSGNPHVLFGGGTQLTVL
B2: scFv H5 (scFv)
scFv: B1 scFv with M100L
B3: scFv H6 (scFv)
scFv: B1 scFv with M100F
B4: scFv L1 (scFv)
scFv: B1 scFv with F99G, M100G, F102I, G103S, N223A, D226S, S227V
B5: scFv L2 (scFv)
scFv: B1 scFv with F99G, M100G, F102I, G103S, N223V, S224A, D226S, S227V, S228V
B6: scFv L3 (scFv)
scFv: B1 scFv with F99G, M100G, F102I, G103S, N223V, D226A, S227V, S228V
B7: scFv L4 (scFv)
scFv: B1 scFv with F99G, M100G, F102I, G103S, N223S, S224T, D226S, S228K
B8: scFv L5 (scFv)
scFv: B1 scFv with F99G, M100G, F102I, G103S, N223A, D226S, S228K
B9: scFv L6 (scFv)
scFv: B1 scFv with F99G, M100G, F102I, G103S, N223M, D226S, S227I, S228W
B10: scFv L8 (scFv)
scFv: B1 scFv with F99G, M100G, F102I, G103S, N223T, S224T, D226S, S227T, S228Q
B11: scFv L9 (scFv)
scFv: B1 scFv with F99G, M100G, F102I, G103S, N223V, S224A, D226S, S227N, S228K
B12: scFv L10 (scFv)
scFv: B1 scFv with F99G, M100G, F102I, G103S, N223I, D226S, S227I, S228Y
B13: scFv L11 (scFv)
scFv: B1 scFv with F99G, M100G, F102I, G103S, N223S, D226S, S227R, S228H
B14: scFv L12 (scFv)
scFv: B1 scFv with F99G, M100G, F102I, G103S, N223V, S224A, D226G, S227T, S228R
B15: scFv L13 (scFv)
scFv: B1 scFv with F99G, M100G, F102I, G103S, N223V, S224T, D226N, S227R, S228Y
B16: scFv L14 (scFv)
scFv: B1 scFv with F99G, M100G, F102I, G103S, N223M, S224A, D226S, S227R, S228K
B17: scFv L15 (scFv)
scFv: B1 scFv with F99G, M100G, F102I, G103S, N223S, S224T, D226A, S227I, S228H
B18: scFv L16 (scFv)
scFv: B1 scFv with F99G, M100G, F102I, G103S, N223V, S224T, D226S, S227A, S228K
B19: scFv L17 (scFv)
scFv: B1 scFv with F99G, M100G, F102I, G103S, N223S, S224T, D226S, S227R, S228K
B20: scFv L18 (scFv)
scFv: B1 scFv with F99G, M100G, F102I, G103S, N223V, S224T, D226S, S227V, S228K
B21: scFv L19 (scFv)
scFv: B1 scFv with F99G, M100G, F102I, G103S, N223V, S224A, D226A, S227V, S228R
B22: scFv L20 (scFv)
scFv: B1 scFv with F99G, M100G, F102I, G103S, N223V, D226S, S227A, S228K
B23: scFv L21 (scFv)
scFv: B1 scFv with F99G, M100G, F102I, G103S, N223A, S224T, D226A, S227V, S228R
B24: scFv L23 (scFv)
scFv: B1 scFv with F99G, M100G, F102I, G103S, N223S, S224A, D226S, S227V, S228R
B25: scFv L24 (scFv)
scFv: B1 scFv with F99G, M100G, F102I, G103S, N223I, S224A, D226S, S227N, S228K
B26: scFv L25 (scFv)
scFv: B1 scFv with F99G, M100G, F102I, G103S, N223T, S224T, D226S, S227N, S228K
B27: scFv H4 (scFv)
scFv: B1 scFv with F99W, M100L
B28: AbE (antibody, human IgG1, V domains shown)
VH: QVQLQESGPGLVKPSETLSLTCAVSGYSISSGYYWGWIRQPPGKGLEWIGSISHTGNTYYNPPLKSRVTISVDTSKNQFSLKLSSVTAADTAVYYCARGGGISRPEYWGQGTLVTVSS
VL: SSELTQDPAVSVALGQTVRITCQGDSLRTYYASWYQQKPGQAPVLVIYGKHKRPSGIPDRFSGSSSGNTASLTITGAQAEDEADYYCMARSRKGNPHVLFGGGTQLTVL
notes: Full-length human IgG1 / human lambda, transient, conditioned medium; Framework limits derived; also called VHP/VL14
B29: AbF (antibody, human IgG1, V domains shown)
VH: B28 VH
VL: B28 VL with M88S, A89T
notes: Full-length human IgG1 / human lambda, transient, conditioned medium; Framework limits derived; also called VHP/VL17

target: T1, human IL-21R expressed on cells (human, UniProt Q9HBE5 20-538); test: cell-based or functional assay
T1 sequence (Q9HBE5 20-538 limits assumed): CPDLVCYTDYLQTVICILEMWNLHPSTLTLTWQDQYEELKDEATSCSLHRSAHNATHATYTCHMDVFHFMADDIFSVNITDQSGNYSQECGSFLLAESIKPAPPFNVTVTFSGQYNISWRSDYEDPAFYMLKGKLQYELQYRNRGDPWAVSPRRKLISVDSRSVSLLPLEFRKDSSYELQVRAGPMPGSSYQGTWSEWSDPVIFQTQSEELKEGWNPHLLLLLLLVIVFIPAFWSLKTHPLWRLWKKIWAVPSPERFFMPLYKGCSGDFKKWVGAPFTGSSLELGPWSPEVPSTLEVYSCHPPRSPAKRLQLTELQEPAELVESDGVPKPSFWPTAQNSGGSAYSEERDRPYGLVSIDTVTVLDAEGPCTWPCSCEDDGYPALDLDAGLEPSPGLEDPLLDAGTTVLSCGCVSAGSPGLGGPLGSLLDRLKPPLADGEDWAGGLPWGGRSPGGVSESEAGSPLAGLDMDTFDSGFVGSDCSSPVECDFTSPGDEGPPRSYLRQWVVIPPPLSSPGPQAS

Binder	IC50 (nM) in Human IL-21R-BaF3 Neutralization Assay	IC50 (nM) in Human IL-21R-TF1 Neutralization Assay
B1	7.7 nM	98.1 nM
B2	7.9 nM	178 nM
B3	13.8 nM	~150 nM
B4	3.7 nM	~55 nM
B5	3.1 nM	37.5 nM
B6	27.6 nM	~7 nM
B7	2.1 nM	~60 nM
B8	2.1 nM	~20 nM
B9	5.9 nM	~150 nM
B10	4.1 nM	51.3 nM
B11	2.8 nM	27.7 nM
B12	15.1 nM	7 nM
B13	4.2 nM	38.3 nM
B14	2.6 nM	54.9 nM
B15	11 nM	257 nM
B16	3.2 nM	33.5 nM
B17	3.3 nM	30.3 nM
B18	3.7 nM	67.4 nM
B19	1.6 nM	60.3 nM
B20	3.7 nM	54.4 nM
B21	4.5 nM	35.3 nM
B22	3.1 nM	57.5 nM
B23	9.4 nM	~100 nM
B24	1.5 nM	15.3 nM
B25	2.4 nM	18.7 nM
B26	3.7 nM	33.1 nM
B27	3.8 nM	9.3 nM

target: T2, murine IL-21R expressed on cells (murine, UniProt Q9JHX3 20-529); test: cell-based or functional assay
T2 sequence (Q9JHX3 20-529 limits assumed): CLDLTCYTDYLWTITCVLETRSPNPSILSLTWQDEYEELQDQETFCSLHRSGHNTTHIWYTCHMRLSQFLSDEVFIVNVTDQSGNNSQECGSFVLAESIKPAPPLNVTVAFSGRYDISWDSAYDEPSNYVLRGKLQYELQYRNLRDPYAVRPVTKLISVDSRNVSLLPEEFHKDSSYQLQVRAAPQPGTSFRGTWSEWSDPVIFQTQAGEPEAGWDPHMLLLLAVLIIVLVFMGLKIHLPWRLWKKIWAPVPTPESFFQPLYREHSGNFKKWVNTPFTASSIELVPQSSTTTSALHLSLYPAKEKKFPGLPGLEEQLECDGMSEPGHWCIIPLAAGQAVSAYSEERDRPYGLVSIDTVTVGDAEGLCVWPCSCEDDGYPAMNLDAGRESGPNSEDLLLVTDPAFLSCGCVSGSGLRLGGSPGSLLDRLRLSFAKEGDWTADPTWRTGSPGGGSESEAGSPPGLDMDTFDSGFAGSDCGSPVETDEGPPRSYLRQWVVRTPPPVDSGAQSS

Binder	IC50 (nM) in Murine IL-21R-BaF3 Neutralization Assay
B1	25.7 nM
B2	53.7 nM
B4	28.8 nM
B5	2.41 nM
B6	13.8 nM
B8	38.5 nM
B9	0.29 nM
B10	715 nM
B11	3.61 nM
B13	10 nM
B14	87.8 nM
B15	1.25 nM
B16	6.49 nM
B17	53.5 nM
B18	4.71 nM
B19	2.66 nM
B20	8.34 nM
B21	13.6 nM
B22	15.4 nM
B23	162 nM
B25	3.73 nM
B26	15.6 nM

target: T1, human IL-21R expressed on cells; test: cell-based or functional assay; remark: another data set of the same source

Binder	Human IL-21R-BaF3 Proliferation IC50	Human IL-21R-TF1 Proliferation IC50
B28	0.56 nM	2.28 nM
B29	0.54 nM	2.41 nM

target: T2, murine IL-21R expressed on cells; test: cell-based or functional assay; remark: another data set of the same source

Binder	Murine IL-21R-BaF3 Proliferation IC50
B28	0.04 nM
B29	0.304 nM

target: T1, human IL-21R expressed on cells; test: cell ELISA on transfected CHO cells, 13 nM IgG
Procedure: (§1) A subset of binding proteins was tested for binding to rat, cynomolgus monkey, human IL-21R, or human IL-2R-γ common subunit expressed transiently on the surfaces of CHO-PA-Dukx cells. Cells were transfected 48 hr prior to the assay. On the day of the assay, cells were washed gently 5× in PBS containing 0.9 mM CaCl₂ and 0.45 mM MgCl₂ (PBS/CaMg) on an automated plate washer (Titertek, Huntsville, Ala.), and blocked for 1 hr at RT in PBS/CaMg/5% nonfat dry milk. Conditioned media from transiently expressed anti-IL-21R IgGs were serially diluted in blocking buffer and added to the cells in the blocked plates for 1 hr at RT. Cells were washed 5× with PBS/CaMg and then incubated with horseradish peroxidase-conjugated anti-human IgG for 1 hr at RT. Cells were then washed 10× in PBS/CaMg and all of the wash buffer was removed. Cells were incubated with 100 μl TMB until the color reaction reached saturation, stopped with 100 μl of 0.18 M H₂SO₄, and read at A450 on a Perkin Elmer ENVISION™ plate reader.

Binder	A450 at 13 nM Ab in cell ELISA
B28	1.26 A450
B29	1.35 A450

target: T3, rat IL-21R expressed on cells (rat); test: cell ELISA on transfected CHO cells, 13 nM IgG
T3 construct: whole, on cells; Transiently transfected CHO-PA-Dukx cells
Procedure: as §1

Binder	A450 at 13 nM Ab in cell ELISA
B28	1.11 A450
B29	1 A450

target: T4, cynomolgus monkey IL-21R expressed on CHO cells (cynomolgus monkey); test: cell ELISA on transfected CHO cells, 13 nM IgG
T4 construct: whole, on cells
Procedure: as §1

Binder	A450 at 13 nM Ab in cell ELISA
B28	1.42 A450
B29	1.46 A450

— patent US20090298167A1 (Pfizer, published 2009)
